Assay results as given in PMC3130009, “Trichinella spiralis Paramyosin Binds to C8 and C9 and Protects the Tissue-Dwelling Nematode from Being Attacked by Host Complement” (PLoS Neglected Tropical Diseases, 2011).

Tests used:
Test in all cases: cell-based or functional assay
[1] = target: human complement component C8, alpha chain (human, UniProt P07357 31-584)
[2] = target: human complement component C8, beta chain (human, UniProt P07358 55-591)
[3] = target: human complement component C9 (human, UniProt P02748 22-559)

Measured: reduction of alternative-pathway complement-mediated lysis of rabbit erythrocytes by 6% normal guinea pig serum, 0 to 40 µg rTs-Pmy (55.7% at 10 µg)

human complement component C9, sequence (P02748 22-559): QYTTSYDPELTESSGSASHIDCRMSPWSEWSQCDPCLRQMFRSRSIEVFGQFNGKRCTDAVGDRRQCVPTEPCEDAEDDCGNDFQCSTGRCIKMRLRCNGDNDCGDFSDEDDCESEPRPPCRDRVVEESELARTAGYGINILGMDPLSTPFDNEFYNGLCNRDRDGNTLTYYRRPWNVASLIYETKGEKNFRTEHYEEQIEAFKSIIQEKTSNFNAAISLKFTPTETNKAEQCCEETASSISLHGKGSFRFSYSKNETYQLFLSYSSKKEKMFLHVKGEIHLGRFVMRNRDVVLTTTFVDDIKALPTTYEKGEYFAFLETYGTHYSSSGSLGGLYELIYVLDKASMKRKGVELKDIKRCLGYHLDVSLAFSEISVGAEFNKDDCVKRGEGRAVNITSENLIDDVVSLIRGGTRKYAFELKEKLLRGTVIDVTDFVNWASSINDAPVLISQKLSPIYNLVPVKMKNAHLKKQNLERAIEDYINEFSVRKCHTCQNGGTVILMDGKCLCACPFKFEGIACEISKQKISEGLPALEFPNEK
human complement component C8, alpha chain, sequence (P07357 31-584): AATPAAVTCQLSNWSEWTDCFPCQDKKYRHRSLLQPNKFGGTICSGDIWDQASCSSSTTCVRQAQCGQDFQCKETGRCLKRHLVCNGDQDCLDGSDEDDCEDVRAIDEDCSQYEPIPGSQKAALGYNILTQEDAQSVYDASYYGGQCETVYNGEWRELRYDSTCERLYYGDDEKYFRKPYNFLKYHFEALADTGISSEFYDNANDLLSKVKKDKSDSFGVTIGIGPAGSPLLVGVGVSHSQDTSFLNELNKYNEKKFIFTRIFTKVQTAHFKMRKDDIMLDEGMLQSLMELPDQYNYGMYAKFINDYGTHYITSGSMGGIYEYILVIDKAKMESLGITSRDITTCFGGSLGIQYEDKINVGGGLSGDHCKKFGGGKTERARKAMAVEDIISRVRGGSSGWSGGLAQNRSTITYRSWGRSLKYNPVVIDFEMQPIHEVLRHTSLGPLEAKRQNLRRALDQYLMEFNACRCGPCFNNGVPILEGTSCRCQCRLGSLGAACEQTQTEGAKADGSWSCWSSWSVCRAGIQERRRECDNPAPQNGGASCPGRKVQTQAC
human complement component C8, beta chain, sequence (P07358 55-591): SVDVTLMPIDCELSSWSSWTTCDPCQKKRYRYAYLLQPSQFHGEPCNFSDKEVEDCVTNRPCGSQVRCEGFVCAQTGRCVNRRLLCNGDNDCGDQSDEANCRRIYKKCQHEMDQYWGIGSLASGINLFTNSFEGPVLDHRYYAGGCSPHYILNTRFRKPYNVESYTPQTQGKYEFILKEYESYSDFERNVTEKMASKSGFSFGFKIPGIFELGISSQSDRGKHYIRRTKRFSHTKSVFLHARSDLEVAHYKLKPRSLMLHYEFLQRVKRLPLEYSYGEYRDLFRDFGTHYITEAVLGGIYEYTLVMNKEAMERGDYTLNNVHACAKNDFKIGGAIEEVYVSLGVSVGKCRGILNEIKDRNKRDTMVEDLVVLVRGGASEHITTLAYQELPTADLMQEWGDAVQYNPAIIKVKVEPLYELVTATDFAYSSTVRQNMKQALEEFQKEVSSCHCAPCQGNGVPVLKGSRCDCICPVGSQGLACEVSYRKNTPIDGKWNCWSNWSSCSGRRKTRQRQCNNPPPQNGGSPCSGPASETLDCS

B1: recombinant Trichinella spiralis paramyosin (natural protein)
chain: MSLYRSPSASVMRSASMLSRSGGFDAYGFGGYGAPSLNVADLGSLTRLEDKIRLLQDDLETERELRNRIERERADLSCQLISLTDRLEEAEGTTDAQIDANRKRESELQKLRKILEDSQLESEDSLNQLRKKHQESLLDYQQQIEQLQKKNSKIDRERQRLQHEVIELTAGIDQMQKDKHAAEKAAEKHEAHARELQNRVDDLAKNLNDLASQRQRLQQENNDLMKELHDVKVQMENIQHVKTQLAQQLEEARRRLEDAERERSQMQTQLHQMQLELDSIQGALEEESSARAEAEHKLSLANTEISQWKSKFDAEVSLHQEEVDDLRKKMIQKQAEYEEQIEIMLQKISQLEKAKSRLQSEVEVLIVDLEKAQSTIAILERQKEQLERMVAEMKTRLDEVTQELEATQRELRATQAELQKMKHLYEKAVEQKEALARENKKLQDDLHEAKEALADANRKLHELDLENARLAGEIRELQIALKEAEAARRDAESRAQRAVAELQALRVEMERRLQEKEEEMEALRKNMQFEIDRLAAALADAEARMKAEISRLKKKYQAEIAELEMTIDNLNRANLEAQKTIKKQADQLRALQSSFEDCQRQLQQTLDQYAIAQRKLSALSAELEDCKSALDTAIRVRKQAEADLEEAQGKIADLVSLNNNLTAIKGKLETDLSTCQADLDETTKELRAADDRANRAQQDAVRAMEQLHEEQEHSMKIDAMRKALEEHVKQLQVQIQEAEAAALLGGKRVIAKLETRIRDLEMALDEESRRHKETQACLRKKDRRVKEMQMQVDEEHKNFVMAQDTAERLAEKLNIYKRQLTEAESLTMQNLQRVRRYQHELEDAEGRAEQAESSLHLIRAKHRSSVSMGKSLSSKVYVMEEGHEY
91.9 % reduction of lysis: [1] | [2] | [3]
